Read-outs that look alike come from different tables or passages of the source.

Results on two substances are retold here after patent US20050281829A1, “Fc chimeric proteins with anti-HIV drugs” (priority 2003, published 2005).

For data set [1] the following is noted: neonatal rats, oral (gavage); FIG. 9. From the text: The blood was allowed to clot and the serum was separated and frozen until analysis.
For data set [2] the following is noted: monkeys, single intravenous bolus; FIG. 8A/8B. Here is the method: The animals were sedated with ketamine (≈10 mg/kg) prior to dosing. The hair from the dosing area were clipped, cleansed with alcohol, and air-dried prior to delivering the dose. This was followed by a 3 mL saline flush. Samples were obtained from the femoral vein at indicated times. The blood was allowed to clot and the serum was separated and frozen until analysis.

The target of the next data set is human serum albumin (Homo sapiens, UniProt P02768). Particulars: SPR, FIG. 11. On the technique in general: Surface plasmon resonance follows binding to a sensor surface in real time, without labels.

Procedure for human serum albumin: A BIACORE 3000 instrument (Biacore AB Uppsala, Sweden) was used and all binding interactions were performed at 25° C. A carboxymethyl-modified dextran (CM5) sensor chip (Biacore. AB Uppsala, Sweden) was used for analysis. HAS (Albuminar) (Aventis Bridgewater, N.J.) was diluted to 100 μg/mL in 10 mM sodium acetate (pH 4.5) and immobilized to one flowcell of the sensor chip, using amine coupling as described. […] Final immobilization level was approximately 8500 Resonance Units (RU). A “mock-immobilized” surface using a separate flowcell was created using the same procedure in the absence of HSA and served as a reference for the binding studies.
Proteins or peptides (analyte) were diluted in HBS-N buffer (10 mM HEPES, pH 7.4; 150 mM NaCl) and injected over the HSA and reference surfaces for 3 minutes at a rate of 20 μL/min. After a 35 second dissociation phase, the surface was regenerated by a 30 second pulse of 10 mM glycine (pH 2.0) at a flow rate of 60 μL/min.
The sensorgrams (Response Units versus time) generated for the mock-coated flowcell were automatically subtracted from the HSA-coated sensorgrams. Response at equilibrium (Req) was measured 30 seconds before the end of the injection phase and divided by the molecular weight of the analyte (Frostell-Karlsson et al. 2000, J. Med. Chem. 43:1986).

Take “Fc-T20: Recombinant chimeric protein: human Fc linked via a glycine peptide linker to T20 at the Fc C terminus (SEQ ID NO:4)”: the serum half life in data set [1] was 23 h; in data set [2], “greater than 40 hours”. In addition, the “binding to human serum albumin (in words)” value in the data set with human serum albumin was “reduced binding”.

Regarding enfuvirtide, the “binding to human serum albumin relative to binding of either FcT20 or T20Fc” value at human serum albumin (25° C., Req divided by molecular weight) is “more than 3 fold”.
